Where “and” joins values, the source holds several entries; their conditions need not be identical. Equal entries are not always repeated. Square brackets hold non-standard residues; d marks the D form. Ends that are not written are not given here.
What follows are binders tested against Ac-VQIINK-NH2 (SEQ ID NO: 23) (N-terminal acetyl (Ac); C-terminal amide (NH2)) (assay: cell-based or functional assay).

Binder	VQIINK Inhibition IC50
[dL][dK][dV][dR][dW][dW][dW][dR] [lkvrwwwr]	3.34 µm
[dL][dK][dI][dQ][dI][dH][dY] [lkiqihy]	2.82 µm
[dK][dV][dR][dW][dW][dL][dR][dW] [kvrwwlrw]	4.35 µm
[dI][dL][dK][dI][dV][dW] [ilkivw]	4.13 µm
[dF][dK][dI][dE][dI][dE][dY][dH] [fkieieyh]	4.03 µm
[dW][dA][dL][dK][dV][dR][dW] [walkvrw]	3.32 µm
[dL][dR][dI][dK][dI][dR][dF][dH] [lrikirfh]	2.69 µm
[dL][dK][dI][dR][dI][dH][dY][dR] [lkirihyr]	3.02 µm
[dF][dK][dL][dK][dI][dK][dW] [fklkikw]	2.66 µm
[dL][dK][dI][dA][dI][dH][dY] [lkiaihy]	4.77 µm
[dF][dR][dI][dK][dL][dR][dW] [friklrw]	2.49 µm
[dF][dR][dI][dR][dL][dR][dW] [frirlrw]	2.58 µm
[dL][dK][dI][dR][dI][dH][dY][dA] [lkirihya]	3.83 µm
[dL][dE][dL][dK][dI][dK][dF][dW] [lelkikfw]	2.78 µm
[dL][dK][dI][dA][dI][dH][dY][dH] [lkiaihyh]	2.26 µm
[dF][dK][dI][dK][dI][dK][dW] (not fully specified; printed as fkikikw) [fkikikw]	2.35 µm
[dR][dR][dL][dK][dV][dR][dW][dW] [rrlkvrww]	4.44 µm
[dT][dK][dI][dR][dI][dH][dY] [tkirihy]	4.77 µm
[dF][dW][dL][dR][dI][dH][dW][dF] [fwlrihwf]	4.42 µm
[dL][dK][dI][dH][dI][dR][dH][dW] [lkihirhw]	2.38 µm
[dV][dR][dW][dW][dK][dL][dR][dW] [vrwwklrw]	4.06 µm
[dV][dK][dV][dW]G[dR][dL][dW] (not fully specified (residue 5); printed as vkvwgrlw) [vkvwgrlw]	4.51 µm
[dF][dR][dL][dW][dI][dH][dW] [frlwihw]	4.01 µm
[dL][dK][dL][dH][dL][dH][dF][dH] [lklhlhfh]	2.87 µm
[dF][dK][dL][dW][dL][dR][dW][dF] [fklwlrwf]	2.52 µm
[dF][dR][dL][dR][dI][dW][dW][dF] [frlriwwf]	2.29 µm
[dT][dL][dK][dI][dV][dW] [tlkivw]	5.02 µm and 7.98 µm
[dF][dK][dL][dK][dL][dR][dW][dF] [fklklrwf]	2.2 µm
[dL][dR][dI][dR][dI][dH][dY][dH] [lririhyh]	3.34 µm
[dL][dK][dI][dR][dI][dH][dY][dE] [lkirihye]	3.39 µm

The next lines start with the values.

VQIINK Inhibition IC50	Binder
2.89 µm	[dW][dR][dL][dR][dI][dT][dW] [wrlritw]
2.45 µm	[dW][dR][dL][dK][dV][dR][dW] [wrlkvrw]
3.87 µm	[dW][dD][dL][dK][dV][dR][dW] [wdlkvrw]
4.41 µm	[dW][dR][dT][dK][dV][dR][dW] [wrtkvrw]
3.79 µm	[dW][dW][dL][dK][dL][dR][dW][dW] [wwlklrww]
3.5 µm	[dW][dN][dL][dK][dV][dN][dW] [wnlkvnw]
2.23 µm	[dW][dR][dL][dK][dF][dR][dW] [wrlkfrw]
2.2 µm	[dW][dR][dL][dE][dI][dH][dW] [wrleihw]
2.23 µm	[dW][dR][dL][dR][dI][dH][dW] [wrlrihw]
3.21 µm	[dW][dR][dL][dK][dV][dD][dW] [wrlkvdw]
3.12 µm	[dW][dA][dL][dR][dI][dH][dW] [walrihw]
3.93 µm	[dW][dL][dK][dI][dV][dW] [wlkivw]
3.57 µm	[dW][dR][dL][dK][dV][dA][dW] [wrlkvaw]
2.17 µm	[dW][dK][dV][dW][dV][dR]G[dW] (not fully specified (residue 7); printed as wkvwvrgw) [wkvwvrgw]
2.21 µm	[dW][dK][dV][dQ][dV][dR][dW] [wkvqvrw]
2.82 µm	[dW][dT][dL][dR][dI][dH][dW] [wtlrihw]
3.89 µm	[dW][dR][dL][dA][dV][dR][dW] [wrlavrw]
2.74 µm	[dW][dQ][dL][dQ][dV][dR][dW] [wqlqvrw]
3.16 µm	[dW][dR][dL][dT][dI][dH][dW] [wrltihw]
5.12 µm	[dY][dR][dL][dK][dV][dR][dW] [yrlkvrw]
2.42 µm	[dW][dR][dL][dD][dV][dR][dW] [wrldvrw]
3.46 µm	[dW][dE][dL][dR][dI][dH][dW] [welrihw]
2.61 µm	[dW][dR][dL][dR][dI][dM][dW] [wrlrimw]
2.86 µm	[dW][dR][dL][dR][dI][dA][dW] [wrlriaw]
4.36 µm	[dW][dR][dL][dK][dV][dE][dW] [wrlkvew]
3.34 µm	[dW][dM][dL][dR][dI][dH][dW] [wmlrihw]
2.53 µm	[dW][dR][dL][dK][dV][dR][dW][dF] [wrlkvrwf]
2.15 µm	[dW][dR][dL][dK][dV][dQ][dW] [wrlkvqw]
4.07 µm	[dW][dR][dL][dW][dI][dH][dW][dW] [wrlwihww]
2.27 µm	[dW][dQ][dL][dK][dV][dQ][dW] [wqlkvqw]
